Our source for the Kd and stoichiometry N values is PMC4856479.

Where only a bound is given, the exact number is not on record here.

The target of assay [1] is isolated HOIP-RBR/UbcH5B~ubiquitin complex (UniProt Q96EP0). Nature of the assay: ITC.
For assay [2] the target is unchanged. Nature of the assay: AUC.

Substance “mono-ubiquitin (untagged, native N- and C-termini) (from UniProt P0CG48 1-76) (natural protein)” registered a Kd in assay [1] of over 50 µM.

“isolated HOIP-RBR/UbcH5B~ubiquitin complex (from UniProt Q96EP0 696-1072; P62837 2-147; P0CG48 1-76)” registered a stoichiometry N in assay [2] of 2.
